Values of other authors as cited in paper PMC6525395.

Target: IL-6Rα (Homo sapiens) (UniProt P08887)
Chain of UniProt P08887 (P08887 20-355): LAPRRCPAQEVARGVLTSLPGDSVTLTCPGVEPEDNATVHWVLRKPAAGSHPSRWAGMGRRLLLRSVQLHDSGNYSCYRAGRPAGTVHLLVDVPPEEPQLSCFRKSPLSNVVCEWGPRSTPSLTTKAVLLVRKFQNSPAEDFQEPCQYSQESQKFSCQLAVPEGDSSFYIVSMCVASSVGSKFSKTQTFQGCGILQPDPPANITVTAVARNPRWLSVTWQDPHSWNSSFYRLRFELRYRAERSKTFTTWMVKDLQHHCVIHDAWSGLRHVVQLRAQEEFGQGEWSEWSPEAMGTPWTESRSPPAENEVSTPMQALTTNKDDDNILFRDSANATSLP

IL-6 (from UniProt P05231)
Kd: 0.5 nM
